According to publication PMC8196016:

Molecular target: SARS-CoV-2 RBD trimer protein (SARS-CoV-2 | bacteriophage T4) (UniProt P0DTC2)
Test: SEC; Superdex 200 Increase 10/300 GL; four peaks, peak 3 taken as the trimer by expected size and Western blotting under non-reducing conditions

“SARS-CoV-2 RBD trimer protein (from UniProt P0DTC2 319-541) (domain or fragment)” was tested, and the stoichiometry N was 3.
